Target: the molecule itself
Assay: negative-stain EM reconstruction with integrative modelling (EM map and cross-links); Elp123 sub-complex from Elp1-TAP purification, 0.01% glutaraldehyde, gel filtration; 1% uranyl acetate; C2 symmetry, 27 Å

B1: endogenously TAP-tagged Elp1 (natural protein, UniProt Q06706 1-1349, looked up)
chain: MVEHDKSGSKRQELRSNMRNLITLNKGKFKPTASTAEGDEDDLSFTLLDSVFDTLSDSITCVLGSTDIGAIEVQQFMKDGSRNVLASFNIQTFDDKLLSFVHFADINQLVFVFEQGDIITATYDPVSLDPAETLIEIMGTIDNGIAAAQWSYDEETLAMVTKDRNVVVLSKLFEPISEYHLEVDDLKISKHVTVGWGKKETQFRGKGARAMEREALASLKASGLVGNQLRDPTMPYMVDTGDVTALDSHEITISWRGDCDYFAVSSVEEVPDEDDETKSIKRRAFRVFSREGQLDSASEPVTGMEHQLSWKPQGSLIASIQRKTDLGEEDSVDVIFFERNGLRHGEFDTRLPLDEKVESVCWNSNSEALAVVLANRIQLWTSKNYHWYLKQELYASDISYVKWHPEKDFTLMFSDAGFINIVDFAYKMAQGPTLEPFDNGTSLVVDGRTVNITPLALANVPPPMYYRDFETPGNVLDVACSFSNEIYAAINKDVLIFAAVPSIEEMKKGKHPSIVCEFPKSEFTSEVDSLRQVAFINDSIVGVLLDTDNLSRIALLDIQDITQPTLITIVEVYDKIVLLRSDFDYNHLVYETRDGTVCQLDAEGQLMEITKFPQLVRDFRVKRVHNTSAEDDDNWSAESSELVAFGITNNGKLFANQVLLASAVTSLEITDSFLLFTTAQHNLQFVHLNSTDFKPLPLVEEGVEDERVRAIERGSILVSVIPSKSSVVLQATRGNLETIYPRIMVLAEVRKNIMAKRYKEAFIVCRTHRINLDILHDYAPELFIENLEVFINQIGRVDYLNLFISCLSEDDVTKTKYKETLYSGISKSFGMEPAPLTEMQIYMKKKMFDPKTSKVNKICDAVLNVLLSNPEYKKKYLQTIITAYASQNPQNLSAALKLISELENSEEKDSCVTYLCFLQDVNVVYKSALSLYDVSLALLVAQKSQMDPREYLPFLQELQDNEPLRRKFLIDDYLGNYEKALEHLSEIDKDGNVSEEVIDYVESHDLYKHGLALYRYDSEKQNVIYNIYAKHLSSNQMYTDAAVAYEMLGKLKEAMGAYQSAKRWREAMSIAVQKFPEEVESVAEELISSLTFEHRYVDAADIQLEYLDNVKEAVALYCKAYRYDIASLVAIKAKKDELLEEVVDPGLGEGFGIIAELLADCKGQINSQLRRLRELRAKKEENPYAFYGQETEQADDVSVAPSETSTQESFFTRYTGKTGGTAKTGASRRTAKNKRREERKRARGKKGTIYEEEYLVQSVGRLIERLNQTKPDAVRVVEGLCRRNMREQAHQIQKNFVEVLDLLKANVKEIYSISEKDRERVNENGEVYYIPEIPVPEIHDFPKSHIVDF
notes: Elp1, S. cerevisiae, endogenous protein with TAP tag (Elp1-TAP::TRP1); also called Elp1-TAP
stoichiometry N: 2

Source: article PMC5286394, “Architecture of the yeast Elongator complex” (EMBO Reports, 2016)
